# Paper PMC314469, “Protein Interaction Networks by Proteome Peptide Scanning” (PLoS Biology, 2004)
# T1: amphyphisin SH3 (AMPH_HUMAN), P49418
# T1 chain: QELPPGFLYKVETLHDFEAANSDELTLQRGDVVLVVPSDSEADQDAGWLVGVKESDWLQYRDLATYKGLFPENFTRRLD
# B1: Q9UPS6 163-177 (peptide)
# chain: PPPRPPRPPSPPPE
# B2: Q14956 325-338 (peptide)
# chain: PPPPPPRPSKPTPS
# B3: P55201 903-917 (peptide)
# chain: PPKRPGRPPKNRES
# B4: O95696 129-142 (peptide)
# chain: PPSAPRRPPVYYKF
# B5: Q8TEH3 833-847 (peptide)
# chain: PPLLPPRPPQGLEP
# B6: Q9UJJ7 281-295 (peptide)
# chain: PPPPPTKPPETEAQ
# B7: Q8TEL4 110-124 (peptide)
# chain: PPEKPPRPPRPLHL
# B8: O95612 13-26 (peptide)
# chain: ASFQPARPHRARHP
# B9: O15056 1170-1184 (peptide)
# chain: PPLLPRRPPPRVPA
# B10: Q9BQI5 457-471 (peptide)
# chain: PPPPPPRPPSRPKL
# B11: Q9Y6J0 1777-1790 (peptide)
# chain: PPLLPGRPARDRGP
# B12: BAC04291 42-56 (peptide)
# chain: PPHLPARPPGGWSR
# B13: Q9HCG4 308-321 (peptide)
# chain: PPPPIPRPAKLQAA
# B14: Q9H0P6 178-191 (peptide)
# chain: ASATLGRPPRIPEP
# B15: Q13191 554-568 (peptide)
# chain: PPPPPERPPPIPPD
# B16: Q9P1A6 952-966 (peptide)
# chain: PPPIPKKPPKGKFP
# B17: Q9UQ16 664-677 (peptide)
# chain: PPQVPSRPTRAPPS
# B18: Q9H9H4 263-277 (peptide)
# chain: PPPLPQRPPPRLPP
# B19: Q9Y6R0 7-20 (peptide)
# chain: ASGGPRRPERHLPP
# B20: O94979 386-399 (peptide)
# chain: PPKWIRRPVGASFS
# B21: Q13470 532-546 (peptide)
# chain: PPGLPPRPPLSSSS
# B22: O15056 1050-1064 (peptide)
# chain: PPQPPQRPPPPTGL
# B23: Q9H1V5 1094-1108 (peptide)
# chain: PPPPPARPPARRAS
# B24: Q96PV3 296-309 (peptide)
# chain: PPRKIKRPKRKMYR
# B25: Q9NQW1 380-393 (peptide)
# chain: PPKWIRRPTGVSFA
# B26: Q07890 1215-1229 (peptide)
# chain: PPPVPLRPPEHFIN
# B27: Q00973 42-55 (peptide)
# chain: PPQSPRRPELPDLA
# B28: Q9H0P3 825-838 (peptide)
# chain: PPQVPSRPTRAPPR
# B29: Q9BR93 13-27 (peptide)
# chain: PPPPPLRPPPPPPP
# B30: Q8TED9 137-151 (peptide)
# chain: PPPLPNKPPPEDYY
# B31: O15117 355-369 (peptide)
# chain: PPPKPNRPPNVDLT
# B32: Q9H293 60-73 (peptide)
# chain: PPLEPARPNRHPES
# B33: Q9UPS6 160-174 (peptide)
# chain: PPLPPPRPPRPPSP
# B34: Q96RY6 273-286 (peptide)
# chain: AARTLRRPKALDSG
# B35: O43584 96-109 (peptide)
# chain: PPPTPRRPASVNGS
# B36: P81489 133-147 (peptide)
# chain: PPGKPERPPPQGGD
# B37: O15354 108-122 (peptide)
# chain: PPGPPTRPPGPWRW
# B38: P50570 828-841 (peptide)
# chain: PPQIPSRPVRIPPG
# B39: P10163 115-129 (peptide)
# chain: PPGKPERPPPQGGN
# B40: Q9UL51 22-36 (peptide)
# chain: PPPPPPRPPKQQPP
# B41: O75412 1048-1061 (peptide)
# chain: PPPLPRRPSTPRQG
# B42: Q05193 829-842 (peptide)
# chain: PPQVPSRPNRAPPG
# Biological target: T1, amphyphisin SH3 (AMPH_HUMAN), P49418
# Test: SPOT array
row,Binder,"normalised SPOT signal, Boehringer light units (BLU); mean over the file's lines of this peptide"
1,B1,5310
2,B2,1290
3,B3,7550
4,B4,71.5
5,B5,107
6,B6,59.9
7,B7,14400
8,B8,3200
9,B9,4490
10,B10,13700
11,B11,6220
12,B12,1280
13,B13,91
14,B14,139
15,B15,29.1
16,B16,64.7
17,B17,8780
18,B18,2170
19,B19,3320
20,B20,41.1
21,B21,433

row,Binder,"normalised SPOT signal, Boehringer light units (BLU); mean over the file's lines of this peptide"
1,B22,1380
2,B23,11500
3,B24,17.3
4,B25,42.3
5,B26,189
6,B27,51.7
7,B28,6350
8,B29,283
9,B30,42.3
10,B31,316
11,B32,282
12,B33,5630
13,B34,7.6
14,B35,170
15,B36,61.4
16,B37,1320
17,B38,8890
18,B39,59.4
19,B40,994
20,B41,1930
21,B42,11000

# Biological target: endophilin SH3 (SH3G2_HUMAN), Q99962
# Test: SPOT array
row,Binder,"normalised SPOT signal, Boehringer light units (BLU); mean over the file's lines of this peptide"
1,B1,9410
2,B2,14300
3,B3,13900
4,B4,2730
5,B5,335
6,B6,63.1
7,B7,29300
8,B8,649
9,B9,7190
10,B10,13400
11,B11,27100
12,B12,2410
13,B13,102
14,B14,65.5
15,B15,74.8
16,B16,3890
17,B17,12700
18,B18,2770
19,B19,12600
20,B20,642
21,B21,5470

row,Binder,"normalised SPOT signal, Boehringer light units (BLU); mean over the file's lines of this peptide"
1,B22,9830
2,B23,13100
3,B24,30.1
4,B25,433
5,B26,435
6,B27,164
7,B28,11000
8,B29,1160
9,B30,92.7
10,B31,2890
11,B32,0
12,B33,8000
13,B34,0
14,B35,1020
15,B36,312
16,B37,9250
17,B38,37500
18,B39,760
19,B40,1160
20,B41,9490
21,B42,19600
